Experimental data reported in article PMC7840601 (2020).

Target: human C3b (CompTech) (human)
Assay: SPR

Sequence of human C3b (CompTech) (human) (chain, as listed by the source, chain 1 of 2): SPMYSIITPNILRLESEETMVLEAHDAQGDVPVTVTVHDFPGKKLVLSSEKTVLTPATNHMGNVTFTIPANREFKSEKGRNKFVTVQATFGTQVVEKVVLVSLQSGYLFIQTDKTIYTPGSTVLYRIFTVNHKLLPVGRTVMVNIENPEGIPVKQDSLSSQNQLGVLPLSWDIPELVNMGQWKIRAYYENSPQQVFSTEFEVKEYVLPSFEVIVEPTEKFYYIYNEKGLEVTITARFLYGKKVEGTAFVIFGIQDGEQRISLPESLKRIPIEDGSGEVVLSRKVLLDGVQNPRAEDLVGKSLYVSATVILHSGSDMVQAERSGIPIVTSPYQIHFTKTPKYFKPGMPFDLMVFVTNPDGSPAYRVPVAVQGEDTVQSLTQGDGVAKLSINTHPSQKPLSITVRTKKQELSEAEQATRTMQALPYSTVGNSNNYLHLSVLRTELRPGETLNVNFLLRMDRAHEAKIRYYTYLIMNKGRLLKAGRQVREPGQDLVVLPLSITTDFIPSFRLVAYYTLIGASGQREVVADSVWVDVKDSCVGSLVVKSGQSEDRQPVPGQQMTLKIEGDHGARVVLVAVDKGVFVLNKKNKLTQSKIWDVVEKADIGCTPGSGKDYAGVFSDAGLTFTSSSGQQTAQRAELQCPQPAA
Sequence of human C3b (CompTech) (human) (chain, as listed by the source, chain 2 of 2): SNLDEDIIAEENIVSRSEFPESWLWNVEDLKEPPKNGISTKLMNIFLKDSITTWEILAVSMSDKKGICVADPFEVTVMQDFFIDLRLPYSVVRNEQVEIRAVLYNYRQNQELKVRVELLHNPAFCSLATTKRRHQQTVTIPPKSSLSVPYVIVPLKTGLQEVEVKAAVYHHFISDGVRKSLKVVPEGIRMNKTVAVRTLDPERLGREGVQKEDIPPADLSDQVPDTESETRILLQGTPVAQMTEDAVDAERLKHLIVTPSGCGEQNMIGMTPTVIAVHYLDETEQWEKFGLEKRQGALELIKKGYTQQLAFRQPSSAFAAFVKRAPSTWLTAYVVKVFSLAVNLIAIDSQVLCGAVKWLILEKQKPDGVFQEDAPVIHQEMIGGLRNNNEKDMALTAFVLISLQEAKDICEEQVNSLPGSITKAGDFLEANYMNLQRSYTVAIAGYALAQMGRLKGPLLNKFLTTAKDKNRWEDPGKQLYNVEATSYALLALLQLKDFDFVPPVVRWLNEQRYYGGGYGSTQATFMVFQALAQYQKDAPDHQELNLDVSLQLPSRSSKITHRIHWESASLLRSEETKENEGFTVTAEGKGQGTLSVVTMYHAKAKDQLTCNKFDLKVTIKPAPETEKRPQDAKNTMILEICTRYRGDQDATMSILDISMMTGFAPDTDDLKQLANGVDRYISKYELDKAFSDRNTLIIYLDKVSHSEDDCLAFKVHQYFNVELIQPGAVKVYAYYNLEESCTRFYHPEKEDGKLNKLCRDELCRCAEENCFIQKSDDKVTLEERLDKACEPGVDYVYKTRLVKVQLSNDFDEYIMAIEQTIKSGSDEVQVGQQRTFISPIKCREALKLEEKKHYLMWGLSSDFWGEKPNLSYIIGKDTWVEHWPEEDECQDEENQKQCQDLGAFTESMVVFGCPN

Kd: 18.1 µM
B1: FH1-4 WT (complement factor H CCPs 1-4, wild type) (domain or fragment)
chain: EDCNELPPRRNTEILTGSWSDQTYPEGTQAIYKCRPGYRSLGNVIMVCRKGEWVALNPLRKCQKRPCGHPGDTPFGTFTLTGGNVFEYGVKAVYTCNEGYQLLGEINYRECDTDGWTNDIPICEVVKCLPVTAPENGKIVSSAMEPDREYHFGQAVRFVCNSGYKIEGDEEMHCSDDGFWSKEKPKCVEISCKSPDVINGSPISQKIIYKENERFQYKCNMGYEYSERGDAVCTESGWRPLPSCE
